Data from the RNAGym collection of RNA variant scans (doi:10.7554/elife.80360).

B1: Hammerhead Ribozyme (parent)
chain: ACCGGAUGUGCUUUCCGGUCUGAUGAGUCCGUGAGGACGAAACAG

Variants of: B1
Assay: self-cleavage, relative activity (ratio to wild type); higher = more cleavage; co-transcriptional

| Variant | self-cleavage |
| --- | --- |
| A6C G18A | 0.311 |
| A6C G18C | 0.311 |
| A6C G18U | 0.428 |
| A6C G22A | 0.29 |
| A6C G22C | 0.296 |
| A6C G22U | 0.39 |
| A6C G25A | 0.286 |
| A6C G25C | 0.24 |
| A6C G25U | 0.219 |
| A6C G27A | 0.56 |
| A6C G27C | 0.478 |
| A6C G27U | 0.38 |
| A6C G31A | 0.778 |
| A6C G31C | 0.573 |
| A6C G31U | 0.884 |
| A6C G33A | 0.689 |
| A6C G33C | 0.472 |
| A6C G33U | 0.579 |
| A6C G35A | 0.568 |
| A6C G35C | 0.391 |
| A6C G35U | 0.744 |
| A6C G36A | 0.391 |
| A6C G36C | 0.326 |
| A6C G36U | 0.34 |

| Variant | self-cleavage |
| --- | --- |
| A6C G39A | 0.311 |
| A6C G39C | 0.368 |
| A6C G39U | 0.271 |
| A6C G45A | 0.384 |
| A6C G45C | 0.433 |
| A6C G45U | 0.44 |
| A6C U7A | 0.311 |
| A6C U7C | 0.577 |
| A6C U7G | 0.392 |
| A6C U9A | 0.479 |
| A6C U9C | 0.486 |
| A6C U9G | 0.578 |
| A6C U12A | 0.826 |
| A6C U12C | 0.899 |
| A6C U12G | 0.991 |
| A6C U13A | 0.906 |
| A6C U13C | 0.598 |
| A6C U13G | 0.673 |
| A6C U14A | 0.536 |
| A6C U14C | 0.495 |
| A6C U14G | 0.508 |
| A6C U19A | 0.265 |
| A6C U19C | 0.397 |
| A6C U19G | 0.269 |

| Variant | self-cleavage |
| --- | --- |
| A6C U21A | 0.475 |
| A6C U21C | 0.389 |
| A6C U21G | 0.415 |
| A6C U24A | 0.707 |
| A6C U24C | 0.387 |
| A6C U24G | 0.511 |
| A6C U28A | 0.191 |
| A6C U28C | 0.604 |
| A6C U28G | 0.354 |
| A6C U32A | 0.901 |
| A6C U32C | 0.838 |
| A6C U32G | 0.477 |
| A6G | 0.806 |
| A6G A23C | 0.277 |
| A6G A23G | 0.272 |
| A6G A23U | 0.274 |
| A6G A26C | 0.396 |
| A6G A26G | 0.303 |
| A6G A26U | 0.71 |
| A6G A34C | 0.604 |
| A6G A34G | 0.6 |
| A6G A34U | 0.82 |
| A6G A37C | 0.656 |
| A6G A37G | 0.674 |

| Variant | self-cleavage |
| --- | --- |
| A6G A37U | 0.44 |
| A6G A40C | 0.355 |
| A6G A40G | 0.213 |
| A6G A40U | 0.247 |
| A6G A41C | 0.299 |
| A6G A41G | 0.266 |
| A6G A41U | 0.273 |
| A6G A42C | 0.268 |
| A6G A42G | 0.275 |
| A6G A42U | 0.219 |
| A6G A44C | 0.523 |
| A6G A44G | 1.08 |
| A6G A44U | 0.483 |
| A6G C11A | 0.965 |
| A6G C11G | 0.921 |
| A6G C11U | 0.796 |
| A6G C15A | 0.707 |
| A6G C15G | 0.54 |
| A6G C15U | 0.811 |
| A6G C16A | 0.825 |
| A6G C16G | 0.537 |
| A6G C16U | 0.762 |
| A6G C20A | 0.4 |
| A6G C20G | 0.236 |

| Variant | self-cleavage |
| --- | --- |
| A6G C20U | 0.432 |
| A6G C29A | 0.36 |
| A6G C29G | 0.498 |
| A6G C29U | 0.89 |
| A6G C30A | 0.48 |
| A6G C30G | 0.594 |
| A6G C30U | 0.634 |
| A6G C38A | 0.454 |
| A6G C38G | 0.448 |
| A6G C38U | 0.629 |
| A6G C43A | 0.217 |
| A6G C43G | 0.284 |
| A6G C43U | 0.321 |
| A6G G8A | 1.17 |
| A6G G8C | 0.708 |
| A6G G8U | 0.844 |
| A6G G10A | 0.989 |
| A6G G10C | 0.889 |
| A6G G10U | 1.1 |
| A6G G17A | 0.389 |
| A6G G17C | 0.494 |
| A6G G17U | 0.393 |
| A6G G18A | 0.486 |
| A6G G18C | 0.351 |

| Variant | self-cleavage |
| --- | --- |
| A6G G18U | 0.468 |
| A6G G22A | 0.239 |
| A6G G22C | 0.284 |
| A6G G22U | 0.28 |
| A6G G25A | 0.263 |
| A6G G25C | 0.283 |
| A6G G25U | 0.194 |
| A6G G27A | 0.657 |
| A6G G27C | 0.45 |
| A6G G27U | 0.356 |
| A6G G31A | 0.853 |
| A6G G31C | 0.979 |
| A6G G31U | 0.945 |
| A6G G33A | 0.844 |
| A6G G33C | 0.597 |
| A6G G33U | 0.863 |
| A6G G35A | 0.302 |
| A6G G35C | 0.684 |
| A6G G35U | 0.465 |
| A6G G36A | 0.624 |
| A6G G36C | 0.351 |
| A6G G36U | 0.314 |
| A6G G39A | 0.31 |
| A6G G39C | 0.297 |

| Variant | self-cleavage |
| --- | --- |
| A6G G39U | 0.248 |
| A6G G45A | 0.556 |
| A6G G45C | 0.433 |
| A6G G45U | 0.597 |
| A6G U7A | 1.09 |
| A6G U7C | 1.29 |
| A6G U7G | 1.35 |
| A6G U9A | 0.796 |
| A6G U9C | 0.834 |
| A6G U9G | 1.09 |
| A6G U12A | 0.819 |
| A6G U12C | 0.802 |
| A6G U12G | 0.802 |
| A6G U13A | 0.842 |
| A6G U13C | 0.722 |
| A6G U13G | 0.778 |
| A6G U14A | 0.436 |
| A6G U14C | 0.704 |
| A6G U14G | 1.13 |
| A6G U19A | 0.278 |
| A6G U19C | 0.486 |
| A6G U19G | 0.264 |
| A6G U21A | 0.393 |
